Here are results for one substance from patent publication US20110034670.

For this series, the system named is 4-(sulfamoyl)benzoyladenosine-pYEEI conjugate (9).

Src tyrosine kinase: the “enhancement of catalytic activity and phosphorylation” value was “enhanced the catalytic activity and phosphorylation by at least 40%”.
